# Results published in the supplement of paper PMC9170038.
# Tested on: MS2 coat protein
# Experiment: apparent KD of MS2 coat protein; higher = weaker reporter binding
# Details: Eterna round: R107
# Protocol: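 RNA-MaP round R107: designed RNA switches with theophylline, tryptophan, arginine or FMN aptamers are transcribed on-chip within common flanks. They are titrated with SNAP-549-labelled MS2 coat protein in RNA-MaP buffer (100 mM Tris pH 7.5, 80 mM KCl, 4 mM MgCl2), without ligand or with the indicated ligand. Median apparent KD per design.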
# [1] = input ligand: theophylline 20 uM
# [2] = input ligand: theophylline 2 mM
# [3] = input ligand: tryptophan 2.4 mM
Sequence,apparent KD of MS2 coat protein (input ligand: arginine 13.2 mM),apparent KD of MS2 coat protein (input ligand: none),apparent KD of MS2 coat protein [1],apparent KD of MS2 coat protein [2],apparent KD of MS2 coat protein [3]
AAGGUAUCACAGAGGUGAUUCAACUGUGAUACCAGCUAGGAAACUAGCCCUUGGCAGCACAUGAGGAUCACCCAUGUAAGAAUAA [(T)'-(M)'-(T1)-(T2)-(M1)-(M2)_Design3_2/19/17],36.3 nM,36.5 nM,33.6 nM,128 nM,37.1 nM
AAGGUGAUCCGUGAUACCAGCUCAACAUGAGGAUCACCCAUGUAACGGACGAAAGUCCGGAGCCCUUGGCAGCACGGUUGCCAAG [(M)'-(Theo1)-(Ms2)-(Theo2)-(M'')-(T2)'_Design1b],29.4 nM,127 nM,62 nM,12.5 nM,83.8 nM
AAUAACAUGAGGAUCACCCAUGUAAAAGAUACCAGAGUGAUGAUCCUCCCUUGGCAGCUUAAACGCUAUUGGAAACAAUAGCGAA [Mat - Same State Theophlline A - Mod of Eli - D3],54.5 nM,,163 nM,,57.7 nM
AAUAACAUGAGGAUCACCCAUGUAAAAGAUACCAGAGUGAUGAUCCUCCCUUGGCAGCUUAAUAACGCUAUCGGAAACGAUAGCG [Mat - Same State Theophlline A - Mod of Eli - D8],37.7 nM,,170 nM,,72 nM
AAUAAGAGCUCGGAUACCAGCGAAAACAGGCACAUGAGGAUCACCCAUGUUAACGCACUGCGCCCUUGGCAGCCGCACGUGUGUC [theeternabot_sameState_MS2_Theo_B_39],19.6 nM,,25.4 nM,,22 nM
AAUAAGAUCCUCAUGUGAGUCGUACCAUAACGAGGACCGGUACGGCCGCCACUCGAACAUGAGGAUCACCCAUGUAGGUACGACA [M'-T'-T-MS2-T'' - Design 8],49.8 nM,,320 nM,882 nM,
AAUAAUAAGGCGGCCGCCACUAAACAUGAGGAUCACCCAUGUCUCGAGCGCAUACAUAAGGGAUGUAGGACCGGGCCAAUAAUAA [Exclusion - Tryptophan B (Freestyle 1)],19 nM,23.5 nM,25.7 nM,23 nM,21.3 nM
AAUAAUAAGGCGGCCGCCACUAAACAUGAGGAUCACCCAUGUCUCGAGGGCUUGCGUUGGGAAAGUAGGACCGGGCCAAUAAUAA [Exclusion - Tryptophan B (Freestyle 7)],10.2 nM,18.7 nM,20.5 nM,14.9 nM,13.3 nM
AAUAAUCUAGGUGAUACCAGCUCAACAUGAGGAUCACCCAUGUGCUCAUGAAGAGCUGAGAGCCCUUGGCAGCACCUAGAUAAUA [(Theo1)-(Ms2)-(M)'-(T)'-(Theo2)_Design2],461 nM,739 nM,676 nM,28.5 nM,1100 nM
AAUAUAUAUCACGAACUGUGGUGUAUGUUGCGAGGACCGGUACGGCCGCCACUCGACCGGUGGUACAUGAGGAUCACCCAUGUUG [XTryp A #10],35.6 nM,57.2 nM,82 nM,56.4 nM,58.1 nM
AAUAUCAUGAGGAUCACCCAUGAAGAAGAUACCAGAGUGAUGAUCCUCCCUUGGCAGCUUAACGCUGAUUGAUUACAAUCAGCGA,31.1 nM,51.8 nM,128 nM,200 nM,30.3 nM
AAUAUUAACUGAAGGAGCGUGUUAUGUACAUGAGGAUCACCCAUGUAUAGGGUAAUACUAACACAGGUAGGUCGCAGAAUAAUUA [JR_SSArginiB_Sub010],20.2 nM,20.6 nM,37.9 nM,22 nM,18.5 nM
AAUCAUGGAAACAUGACAUGAGGGUUACUCCGAGGACCGGUACGGCCGCCACUCGCGAGGAGGCGGACAUGAGGAUCACCCAUGU [#04 Tryptophan A Same State],32.4 nM,392 nM,240 nM,260 nM,41.6 nM
AAUCCAAGAAAUGAUACCAGUCCCACUCAGGACAUGAGGAUCACCCAUGUAAUACAGGGAGACCCUUGGCAGCAUCGAAUAAACA [theeternabot_sameState_MS2_Theo_B_33],178 nM,,479 nM,,1070 nM
AAUCUGUCGGGUGAUACCAGCCUCGGCACAUCUCGUGCCGAACAUGAGGAUCACCCAUGUGGCCCUUGGCAGCACAUGACAAAUC [Usreerso],289 nM,,801 nM,,520 nM
AAUGUGAUAGUCGUACUCUCACACUGAGAAGGAGCGCGAAAGUUCGCAGGUAGGUCGCUCAGUUAUACAUGAGGAUCACCCAUGU [Edgeised],21.9 nM,21 nM,26.8 nM,27.3 nM,20.9 nM
ACACAUGAGGAUCACCCAUGUUCAAUAGAUACCAGUGAUACGGUGCACCCUUGGCAGCUGUUGCUGAGUGAUGGUUCCCUCGGAA [#22 SameState-TheophyllineA],32.9 nM,,75.6 nM,,52.5 nM
ACACAUGAGGAUCACCCAUGUUGAGGAACACGAGGACCGGUACGGCCGCCACUCGACACAUGAGGAUCACCCAUGUGAUCACCCA [Same State Tryptophan A 2],49.7 nM,,129 nM,173 nM,

Sequence,apparent KD of MS2 coat protein (input ligand: arginine 13.2 mM),apparent KD of MS2 coat protein (input ligand: none),apparent KD of MS2 coat protein [1],apparent KD of MS2 coat protein [2],apparent KD of MS2 coat protein [3]
ACAGGUACGCCUAUUAAAAUAAAACACCUACGAGGACCGGUACGGCCGCCACUCGGGUGACAUGAGGAUCACCCAUGUGGCUAAA [Ceeron],101 nM,,610 nM,851 nM,
ACAUCCAGGUUAAUCGUGGACAUGGUCGAUACCAGUAUUUUAAUCUACCCUUGGCAGCGACAUGAGGAUCACCCAUGUGCGAUGA [XTheo A #14],13.8 nM,,17.2 nM,,14.9 nM
ACAUGAGGAUCACCCAUGUAAGGUCUUGAUACCAGACGCGAAGUAGUCCCUUGGCAGCAAAUACGUGAGGGUCGCACAUGUGUAA [mcnmullin],18.4 nM,33.1 nM,35.9 nM,59.8 nM,27.8 nM
ACAUGAGGAUCACCCAUGUAAUAAUCAGAAGGAGCGUGGAAUAACACAGGUAGGUCGCUGAUGUUUGGUUAAAAUUAUUCGUGAA [JR_ExcArginiA_Sub001],12.2 nM,13.1 nM,16.6 nM,14 nM,14 nM
ACAUGAGGAUCACCCAUGUAAUGGCACGAUACCAGCUGAUCCCGUGGCCCUUGGCAGCGUCCGGUGUGGUCCGCCGGGUUGGAGC [DDDMULLIN],28.7 nM,,39.5 nM,,27 nM
ACAUGAGGAUCACCCAUGUACAUAAGGGAAGGAGCGCGGUGGAACGCAGGUAGGUCGCCCAUAAUAACAAUAAAUAAAUUCAUGU [#04 Same State - Arginine A],14.7 nM,14.7 nM,23.6 nM,17.5 nM,16.5 nM
ACAUGAGGAUCACCCAUGUAGCCUAGGGAAGGAGCGGCAUAAAAGCCAGGUAGGUCGCCCGCAUGAGGAUCACCCAUGUCAAGGA [Same State Arginine A GF7],42.8 nM,70 nM,81.7 nM,74.9 nM,61 nM
ACAUGAGGAUCACCCAUGUAGUAGUCAGAAGGAGCGUGGAAUAACACAGGUAGGUCGCUGAUGUUUGGUUAAAUGUAAUCGUGUA [#30 Same State - Arginine A],19.6 nM,17.4 nM,27.6 nM,18.3 nM,17.8 nM
ACAUGAGGAUCACCCAUGUGAAGCAGGGUACGAGGACCGGUACGGCCGCCACUCGAGGAUUAUGCCGAGUGAAUGGCAACGAUGU [whbob_Ex_trypto A_2s19],,,22.7 nM,16.2 nM,
ACAUGAGGAUCACCCAUGUGCAGAACGGAUACCAGCGUGCUGGUACGCCCUUGGCAGCCGGACAUGAGGAUCACCCAUGUGUGGA [Exclusion Theophylline A GF28],32.1 nM,42.1 nM,55.7 nM,164 nM,66 nM
ACAUGAGGAUCACCCAUGUGCCGAGUUGAUACCAGACCCGCACUAGUCCCUUGGCAGCAACUACGUGUGGGACACCCAUGUUAAG [qaqmullin],29.1 nM,,85.5 nM,,47.9 nM
ACAUGAGGAUCACCCAUGUGGCGACUUGAUACCAGACCCGCACUAGUCCCUUGGCAGCAACUACGUGAGGGACACCCAUGUGAAG,17.6 nM,25.8 nM,41.6 nM,38.2 nM,21.6 nM
ACAUGAGGAUCACCCAUGUUGAACUACCAUCGAGGACCGGUACGGCCGCCACUCGCGUUCUCCUUAGCAUCAAGGUCCGCGAAAC [theeternabot_exclusion_MS2_Trp_A_1],10.3 nM,,15.3 nM,13.6 nM,
ACAUGAGGAUCACCCAUGUUUGAUGUUCCUCGAGGACCGGUACGGCCGCCACUCGAACGAGUGGCGCGCGCGCGCGCGCGCGCGC [aQa],10.9 nM,12.5 nM,22.9 nM,14.5 nM,13 nM
ACAUGAGGGAUGGAUACCAGCGACAUGAGGAUCACCCAUGUAUGAGGAUCAGCCAUGUUAUGCCCUUGGCAGCCACGAACAUCAG [EDEMULLIN],27.3 nM,,45.2 nM,,29.8 nM
ACAUGAGGGCGAAGGAGCGCGAACAUGAGGAUCACCCAUGUGUAUGUAUGUUGUCAUGUAUCGCAGGUAGGUCGCGCUGUUACAU [Exclusion Arginine B],90.1 nM,233 nM,245 nM,341 nM,307 nM
ACAUUAGCCACGGCCGCCACUGCUUUAUGAUUAUAAGGAUUAAUGAACAUGAGGAUCACCCAUGUCAGGACCGGGUGCCUACCAU [SSTryp B #4],31.4 nM,,42.3 nM,39 nM,
